According to patent US10407488B2, “Therapy for treatment or prevention of conditions associated with bleeding or hypocoagulation” (THE REGENTS OF THE UNIVERSITY OF CALIFORNIA, priority 2013, dated 2019):
Values joined by “and” are separate entries in the source; they are usually repeats but may differ in a detail not shown here. Equal values may be shown once.

Experiments:
[1] = system: thrombin generation in normal human plasma; experiment: Thrombin generation in NHP in the presence of rivaroxaban or apixaban; assay type: biochemical; conditions: dose titration in NHP
Experimental: Thrombin generation or Endogenous Thrombin Potential (ETP) assays were performed as described. Briefly, plasma samples supplemented with CTI, TF, PCPS were preincubated […] in the presence or absence of rivaroxaban, apixaban, Kcentra®, NovoSeven® or ^superFVa. Thrombin generation was initiated by addition of CaCl2 and Z-Gly-Gly-Arg-AMC in HBS/0.5% BSA. The final reaction mixture contained, 50% plasma, 0.725 μM CTI, 0.2 Pm TF, 4 μM PCPS vesicles, 0.5 mM Z-GGR-AMC, 7.6 mM CaCl2 in a total volume of 100 μl. Concentrations of rivaroxaban, apixaban, Kcentra®, NovoSeven® or ^superFVa are indicated in the result section and in the figure legends. Fluorescence was measured at excitation/emission wavelengths of […] using Gemini EM fluorescent plate reader (Molecular Devices). Fluorescence time course data were converted to Nm thrombin as described. ETP, defined as the area under the curve (AUC) and the peak height were determined using Origin software.

[2] = system: thrombin generation in normal human plasma with rhAPC; experiment: Thrombin generation in normal human plasma in the presence of rhAPC; assay type: biochemical; conditions: human plasma
Experimental: (§1) BU titer values for FVIII antibodies added to FVIII-deficient plasma were determined using a modified Nijmegen Bethesda assay (Barrow and Lollar; JTH 2006, 4:2223-2229). Briefly, antibody was serially diluted in HBS with 0.05% Tween 80 and mixed 1:1 with pooled normal plasma that was supplemented with 100 mM Imidazole, pH 7.0. Samples were incubated at 37° C. for 2 hours then assayed by aPTT with APTT XL reagent (Pacific Hemostasis). A standard curve was derived from a serial dilution of normal plasma into FVIII deficient plasma that was also mixed 1:1 with HBST and incubated at 37° C. for 2 hours. Percent FVIII activity was plotted versus mg/ml of antibody and residual activity of 50% was defined as 1 BU/ml. In addition, endogenous thrombin potential (ETP) assays were performed as described (3). Briefly FVa mutants or saline were added to human or murine plasma (George King Bio-Medical; mouse source, 50% v/v) supplemented with […] corn trypsin inhibitor (Haematologic Technologies), 10 mM CaCl2, 10 μM phospholipid vesicles (80% phosphatidylcholine, 20% phosphatidylserine, prepared as described (6), 0.2 pM soluble tissue factor (Innovin®, Dade Behring), and 0.4 mM Z-Gly-Gly-Arg-AMC (thrombin substrate, Bachem) in HBS. After mixing, 100 μL was transferred to a FluoroNunc microtiter plate at 37° C. to monitor fluorescence (excitation at 360 nm/emission at 460 nm; Gemini EM fluorescent plate reader (Molecular Devices)). Fluorescence time course data were converted to nM thrombin as described (7). ETP, defined as the area under the curve, was determined using Prism 5.04 (Graphpad).
(§2) APC-mediated inactivation of FVa was analyzed in ETP assays and aPTT clotting assays. FVa mutants were incubated with equal volumes of either recombinant human APC (Xigris®) or buffer in human and murine Balb/c plasma.

[3] = system: aPTT clotting time in human plasma; experiment: aPTT clotting assay in human plasma with rhAPC; assay type: biochemical; conditions: human plasma
Experimental: as §2
(§3) Plasma (50 μL) was mixed with 50 μL of a PTT reagent (APTT-XL, Pacific Hemostasis) and incubated at 37° C. for 3 minutes in the presence of FVa either with recombinant human APC or buffer. Following addition of 25 μL of 50 mM CaCl2 in HBS, 0.5% BSA, the clotting time was recorded using an ST4 coagulometer (Diagnostica Stago).

[4] = system: aPTT clotting time in murine plasma; experiment: aPTT clotting assay in murine plasma with rhAPC; assay type: biochemical, mouse
Experimental: as §2, §3

[5] = system: thrombin generation in murine Balb/c plasma with rhAPC; experiment: Thrombin generation in murine Balb/c plasma in the presence of rhAPC; assay type: biochemical, mouse
Experimental: as §1, §2

Balb/c mice [6] = experiment: Ex vivo whole blood aPTT after intravenous APC in Balb/c mice; design: species or system mouse; conditions: for mean whole blood aPTT clotting time: 2 minutes after intravenous APC 0.5 mg/kg, saline 30 sec
Experimental: Recombinant murine APC was administered intravenously to Balb/c mice by tail vein injection 2 minutes prior to retroorbital blood harvest in siliconized microcapillaries (75 μL) prefilled with 20 μL Sodium-Citrate (3.8%). Whole blood aPTT was performed immediately, whereby 50 μL of blood were mixed with 50 μL of aPTT reagent (APTT-XL, Pacific Hemostasis) and incubated at 37° C. for 3 minutes in the presence of FVa or buffer. Following addition of 25 μL of 130 mM CaCl2 in HBS, 0.5% BSA, the clotting time was recorded using an ST4 coagulometer (Diagnostica Stago).

Balb/c mice [7] = experiment: Liver laceration bleeding assay, APC-induced bleeding in Balb/c mice; assay type: in vivo; conditions: for mortality rate: APC-induced bleeding after liver laceration
Experimental: Mice were anesthetized with Isofluorane 3% and the abdomen was opened by substernal blunt midline dissection. […] Immediately after laceration mice were positioned prone into a small weighing dish (8 cm diameter) filled with saline (37° C., 13 mL), transferred into the anesthesia chamber which rested on a heating pad (37° C.). Anesthesia was maintained at 3% Isofluorane and dishes were changed after 10 minutes to collect blood for the first and second 10 minutes separately. Blood loss was determined as described for the tail clip model. Groups of Balb/c mice were injected intravenously (tail vein) with equal volumes (200 μL) of ^superFVa or saline 2 minutes prior to intravenous injection of plasma-derived human APC, followed immediately by liver laceration. All agents were diluted in sterile sodium chloride 0.9% for injection (Hospira Inc).

Balb/c mice [8] = experiment: Tail clip bleeding assay, APC-induced bleeding in Balb/c mice; assay type: in vivo, mouse
Experimental: Mice were anesthetized with Isoflurane 3%, placed on temperature controlled heating pads (37° C.), and the distal portion of the tail was cut at 1.5 mm diameter after which the tail was immersed in a predefined volume of 37° C. saline (0.9% NaCl) for 20 minutes. To study effects on bleeding and clot stability, tubes were changed after 10 minutes to collect blood for the first and second 10 minutes separately. Blood loss was determined by the hemoglobin concentration in the saline solution after red cell lysis with 2% acetic acid and measured by absorbance at 490 nm. Using a hemoglobin standard derived from defined blood volumes, blood loss was calculated assuming a hematocrit of 46% and expressed in μL/g body weight. Groups of Balb/c mice were injected intravenously (tail vein) with equal volumes (200 μL) of ^superFVa or saline 2 minutes prior to intravenous injection of rhAPC (Xigris®). Immediately after APC injection tail cut was performed. All agents were diluted in sterile sodium chloride 0.9% for injection (Hospira Inc).

[9] = concentrations where ^superFVa restores
[10] = plasma derived human APC 1.25 mg/kg

For `COc1ccc(-n2nc(C(N)=O)c3c2C(=O)N(c2ccc(N4CCCCC4=O)cc2)CC3)cc1` [apixaban, Apixaban], the “concentration for optimal suppression of ETP” value [1] was 200 nM.

For “FVa: wild-type recombinant human activated Factor V used as comparator [reference compound]”, the “effect on thrombin generation suppressed by APC” value [2, 9] was “did not show effects”, the aPTT ([3]; 0.05 U/mL FVa variants, 10 nM APC, ~100 seconds without FVa) was roughly 80 s and the aPTT ([4]; 5 U/mL FVa variants, APC, ~100 seconds without FVa) was roughly 70 s. The “effect on thrombin generation suppressed by APC” value [5, 9] was “did not show effects”, the “effect on whole blood aPTT clotting times” value (Balb/c mice [6]; 1 nM added to whole blood after iv APC 0.5 mg/kg) was “failed to show a significant effect” and the “mean whole blood aPTT” value (Balb/c mice [6]; FVa variant added ex vivo to whole blood drawn after APC 0.5 mg/kg injection) was 50 s.

In the case of `O=C(NC[C@H]1CN(c2ccc(N3CCOCC3=O)cc2)C(=O)O1)c1ccc(Cl)s1` [rivaroxaban, Rivaroxaban], the “concentration for optimal suppression of ETP” value [1] is reported as 200 nM.

For “APC: Activated Protein C; recombinant human (Xigris®, Eli Lilly) or plasma-derived human APC”, the mean blood loss (Balb/c mice [7]; APC 1.25 mg/kg iv, 20 minutes after liver laceration) was 40 µL/g, the mean blood loss (Balb/c mice [7]; APC 1.25 mg/kg iv, 20 minutes after liver laceration, listed as wt APC) was 49 µL/g and the mean blood loss (Balb/c mice [7]; APC 1.25 mg/kg, first 10 minutes after liver laceration) was 35.1 µL/g. For the same molecule, the mortality rate (Balb/c mice [7]) was 54% and ~50%, the mortality rate (Balb/c mice [7]; listed as wt APC) was roughly 40% and the “mice died during the 1st 10 minutes after injury” value (Balb/c mice [7]; [10]) was “Four of 13”. The “more mice died during the 2nd 10 minutes” value (Balb/c mice [7]; [10]) was “Three”, the “optimal concentration for maximal suppression of ETP” value [2] was 5 nM and the “optimal concentration for aPTT prolongation to ~100 seconds” value [3] was 10 nM. For the same molecule, the “optimal concentration for aPTT prolongation to ~100 seconds” value [4] was 25 nM, the mean blood loss (Balb/c mice [8]; APC 1.25 mg/kg iv, combined 20 minutes after tail clip) was 27 µL/g and the mean blood loss (Balb/c mice [8]; APC 1.25 mg/kg, first 10 minutes after tail clip) was 13.7 µL/g. The mean blood loss (Balb/c mice [8]; APC 1.25 mg/kg, second 10 minutes after tail clip) was 13.2 µL/g, the mean blood loss (Balb/c mice [8]; APC, first 10 minutes after tail clip) was 13.7 µL/g and the “dose that resulted in notable bleeding” value (Balb/c mice [8]; single intravenous administration, in vivo dose response) was 1.25 mg/kg. For the same molecule, the mean blood loss (Balb/c mice [8]; wt APC 1.25 mg/kg iv, tail clip) was 27 µL/g, the “optimal concentration for maximal suppression of ETP” value [5] was 100 nM and the “mean whole blood aPTT clotting time” value (Balb/c mice [6]) was 67 s.

B1: murine recombinant wt APC: Recombinant murine APC purified and prepared as previously described (protein)
chain: ANSFLEEMRPGSLERECMEEICDFEEAQEIFQNVEDTLAFWIKYFDGDQCSAPPLDHQCDSPCCGHGTCIDGIGSFSCSCDKGWEGKFCQQELRFQDCRVNNGGCLHYCLEESNGRRCACAPGYELADDHMRCKSTVNFPCGKLGRWIEKKRKILKRDTDLEDELEPDPRIVNGTLTKQGDSPWQAILLDSKKKLACGGVLIHTSWVLTAAHCVEGTKKLTVRLGEYDLRRRDHWELDLDIKEILVHPNYTRSSSDNDIALLRLAQPATLSKTIVPICLPNNGLAQELTQAGQETVVTGWGYQSDRIKDGRRNRTFILTFIRIPLVARNECVEVMKNVVSENMLCAGIIGDTRDACDGDSGGPMVVFFRGTWFLVGLVSWGEGCGHTNNYGIYTKVGSYLKWIHSYIGEKGVSLKSQKL
In the case of B1, the “mean whole blood aPTT clotting time” value (Balb/c mice [6]) is reported as roughly 60 s.
